One block for each substance: values may come before it.
How the values were obtained:
CD28 [1] = target: T1, CD28 (Homo sapiens, UniProt P10747); test: Jurkat/IL2 + CHO/OKT3 +/- PD-L1 reporter assay: PD-L1-dependent CD28 costimulation; assay type: cell-based; design: host or cells: Jurkat cells expressing an IL-2-luciferase reporter; settings: luciferase signal
Summary of the method: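 Readout is relative luminescence from lysed cocultures: test protein given 15 min at room temperature to Jurkat cells before adding CHO artificial APCs displaying OKT3 alone or OKT3 plus PD-L1, then 5 h at 37 °C, 5% CO2.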

CD28 [2] = target: T1, CD28; test: CD28 costimulation via Fc receptor or PD-L1 dependent cross-linking (Jurkat/IL2 + K562/OKT3 +/- PD-L1); assay type: cell-based; design: host or cells: Jurkat cells expressing an IL-2-luciferase reporter; settings: luciferase signal
Protocol: In a further experiment, CD28 costimulation was assessed for variant CD80-IgV-Fc fusion proteins, where the Fc was an IgG1 Fc (e.g. SEQ ID NO:1517) capable of mediating effector activity via binding to Fc receptors (FcR). The experiment was carried out as described in part A above, except CD32-expressing K562 cells stably transduced with OKT3 (K562/OKT3) or OKT3 and PD-L1 (K562/OKT3/PD-L1) were used instead of the CHO/OKT3 and CHO/OKT3/PD-L1 cells, and the results are depicted in Table E9.

huCTLA4 = huCTLA4 (Homo sapiens, UniProt P16410); test: Flow binding to HEK293 cells transfected with CTLA4; design: Full-length mammalian surface expression constructs for each of human CTLA-4, PD-L1, and CD28; host or cells: HEK293 cells, Expi293F transient transfection system; settings: Table E1
Protocol: Full-length mammalian surface expression constructs for each of human CTLA-4, PD-L1, and CD28, were designed in pcDNA3.1 expression vector (Life Technologies) and sourced from Genscript, USA. Binding studies were carried out on transfected HEK293 cells generated to express the full-length mammalian surface ligands using the using the Expi293F transient transfection system (Life Technologies, USA). As a control, binding to mock (non-transfected) cells also was assessed. […] For each CTLA-4, PD-L1, CD-28 or mock 30 mL transfection, 75 million Expi293F cells were incubated with 30 μg expression construct DNA and 1.5 mL diluted ExpiFectamine 293 reagent for 48 hours, at which point cells were harvested for staining.
For staining and analysis by flow cytometry, 100,000 cells of appropriate transient transfection or negative control (mock) were plated in 96-well round bottom plates. Cells were spun down and resuspended in staining buffer (PBS (phosphate buffered saline), 1% BSA (bovine serum albumin), and 0.1% sodium azide) for 20 minutes to block non-specific binding. […] Secondary antibody was washed out twice, cells were fixed in 4% formaldehyde/PBS, and samples were analyzed on Intellicyt flow cytometer (Intellicyt Corp, USA). Mean Fluorescence Intensity (MFI) was calculated for each transfectant and mock transfected HEK293 with FlowJo Version 10 software (FlowJo LLC, USA).

CD28 [3] = target: T1, CD28; test: Flow binding to HEK293 cells transfected with CD28; design: Full-length mammalian surface expression constructs for each of human CTLA-4, PD-L1, and CD28; host or cells: HEK293 cells, Expi293F transient transfection system; settings: Table E1
Protocol: This Example describes Fc-fusion binding studies of purified proteins from the above Examples to cell-expressed CTLA-4, PD-L1, and CD28 counter structures to assess the specificity and affinity of CD80 domain variant immunomodulatory proteins. Full-length mammalian surface expression constructs for each of human CTLA-4, PD-L1, and CD28, were designed in pcDNA3.1 expression vector (Life Technologies) and sourced from Genscript, USA. Binding studies were carried out on transfected HEK293 cells generated to express the full-length mammalian surface ligands using the using the Expi293F transient transfection system (Life Technologies, USA). As a control, binding to mock (non-transfected) cells also was assessed. […]
For staining and analysis by flow cytometry, 100,000 cells of appropriate transient transfection or negative control (mock) were plated in 96-well round bottom plates. […] As controls, the binding activities of wild-type CD80-ECD-Fc (R&D Systems), wild-type CD80-ECD-Fc (inert), wild-type IgV-Fc (inert) and/or human IgG (Sigma) were also assessed. […] Secondary antibody was washed out twice, cells were fixed in 4% formaldehyde/PBS, and samples were analyzed on Intellicyt flow cytometer (Intellicyt Corp, USA). Mean Fluorescence Intensity (MFI) was calculated for each transfectant and mock transfected HEK293 with FlowJo Version 10 software (FlowJo LLC, USA). […]

allogeneic CD4+ T cells = test: Mixed Lymphocyte Reaction (MLR), IFN-gamma; assay type: cell-based, human; settings: Table E33; culture supernatant
Protocol: Soluble rCD80.Fc bioactivity was tested in a human Mixed Lymphocyte Reaction (MLR). Human primary dendritic cells (DC) were generated by culturing monocytes isolated from PBMC (BenTech Bio, USA) in vitro for 7 days with 500U/ml rIL-4 (R&D Systems, USA) and 250 U/ml rGM-CSF (R&D Systems, USA) in Ex-Vivo 15 media (Lonza, Switzerland). 10,000 matured DC and 100,000 purified allogeneic CD4+ T cells (BenTech Bio, USA) were co-cultured with variant CD80 Fc fusion proteins and controls in 96 well round bottom plates in 200 μl final volume of Ex-Vivo 15 media. On day 5, IFN-gamma secretion in culture supernatants was analyzed using the Human IFN-gamma Duoset ELISA kit (R&D Systems, USA). Optical density was measured by VMax ELISA Microplate Reader (Molecular Devices, USA) and quantitated against titrated rIFN-gamma standard included in the IFN-gamma Duo-set kit (R&D Systems, USA).

human pan T cells = test: Anti-CD3 coimmobilization assay, IFN-gamma; assay type: cell-based; settings: Table E33; culture supernatant, 3 days
Protocol: Costimulatory bioactivity of CD80 fusion variants was determined in anti-CD3 coimmobilization assays. 1 nM or 4 nM mouse anti-human CD3 (OKT3, Biolegends, USA) was diluted in PBS with 1 nM to 80 nM rCD80.Fc variant proteins. This mixture was added to tissue culture treated flat bottom 96-well plates (Corning, USA) overnight to facilitate adherence of the stimulatory proteins to the wells of the plate. The next day, unbound protein was washed off the plates and 100,000 purified human pan T cells (BenTech Bio, US) or human T cell clone BC3 (Astarte Biologics, USA) were added to each well in a final volume of 200 μl of Ex-Vivo 15 media (Lonza, Switzerland). Cells were cultured 3 days before harvesting culture supernatants and measuring human IFN-gamma levels with Duoset ELISA kit (R&D Systems, USA) as described above.

[4] = test system: primary human pan T cells; test: Cytokine production following PD-L1-dependent costimulation; assay type: cell-based; settings: mitomycin-c treated K562/OKT3/PDL1 aAPC; FIG. 6
MC38 hPD-L1 tumor cells = test: MC38 hPD-L1 tumor model in C57BL/6 mice; assay type: in vivo, mouse
Protocol: Mouse MC38 tumor cells were stably transfected with human PD-L1 (MC38 hPD-L1) and implanted subcutaneously into C57BU6 mice. […] Tumor volume was tracked over time.
70 female C57CL/6 mice, containing similar tumor volumes of approximately 50-51 mm^3, following implantation of MC38 hPD-L1 tumor cells, were staged and divided into 5 treatment groups containing 14 mice each. […] Tumor volumes were measured on days 7, 10, and 12. On day 13, 5 animals were sacrificed for analysis as described in the sections below. Tumor measurements resumed for the remaining 9 mice for each group on days 17, 20 and 27. On days 26, 28, and 31, the animals in Group 1 (Fc isotype control) received an intratumoral injection of 100 μg E35D/M47L CD80-IgV-Fc.
95 female C57BU6 mice were implanted with MC38 hPD-L1 tumor cells. The tumors were staged on Day 7, and 77 mice with similar tumor volumes of approximately 60 mm^3 were divided into 7 treatment groups containing 11 mice each.
On day 49, tumor-free mice, from Groups 3, 4, 6, and 7, and 2 naïve C57CL/6 mice were re-challenged with an additional injection of hPD-L1 MC38 cells. Tumor volumes were measured on days 56, 59, and 63. The results are depicted in FIG. 13. […] At day 59, 8/8 mice from Group 3, 1/2 mice from Group 4, 1/1 mouse from Group 6, and 2/2 mice from Group 7 were tumor-free, and by day 63, all mice in Group 3, Group 4, Group 6, and Group 7 were tumor-free.
75 animals were staged into 3 treatment groups 7 days after implantation with hPD-L1 MC38 tumor cells. […] Tumor volumes were measured every 3-4 days, from Day 11 until Day 35. 3 days after the 1st dose, 2nd dose and 3rd dose, 4 mice from each group were sacrificed for tumor and LN analyses, leaving 13 mice for tumor volume measurements throughout the study period.

[5] = test system: huPD-L1 transduced MC38 tumor cells; test: In vitro cytotoxicity to huPD-L1 transduced MC38 tumor cells; assay type: cell-based, mouse; settings: 100 nM or 10 nM; 72 hours; human pan T cells 1:5; FIG. 17
Protocol: This Example describes the assessment of in vitro cytotoxicity of huPD-L1 transduced MC38 tumor cells. MC38 tumor cells, non-transduced or transduced with huPD-L1, were treated with Mitomycin-C and plated with human pan T cells labelled with CFSE at a 1:5 ratio. […] As a control, an exemplary anti-PD-1 antibody nivolumab or an Fc (inert) only control also were assessed. Cells were then harvested and stained with 7-AAD viability dye. After acquiring samples on a flow cytometer, the percentage of dead cells was calculated using Flowjo analysis by gating on 7-AAD+ cells in the CFSE− gate.

[6] = 3 injections of 100 μg on Days 8, 10 and 12
[7] = re-challenged on day 49 with hPD-L1 MC38 cells

Chain of huCTLA4 (P16410 36-223): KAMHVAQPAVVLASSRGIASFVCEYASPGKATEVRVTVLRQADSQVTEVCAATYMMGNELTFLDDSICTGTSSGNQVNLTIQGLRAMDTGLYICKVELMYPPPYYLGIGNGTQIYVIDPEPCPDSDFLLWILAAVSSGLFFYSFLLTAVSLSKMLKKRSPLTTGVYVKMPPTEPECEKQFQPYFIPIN

PD-L1-Dependent CD28 Costimulation, +PD-L1, 0.6 nM (CD28 [1]; CHO/OKT3/PD-L1 aAPC, 0.6 nM): 501
PD-L1-Dependent CD28 Costimulation, +PD-L1, 50 nM (CD28 [1]; CHO/OKT3/PD-L1 aAPC, 50 nM): 440
PD-L1-Dependent CD28 Costimulation, No PD-L1, 50 nM (CD28 [1]; CHO/OKT3 aAPC, no PD-L1, 50 nM): 395
PD-L1-Dependent CD28 Costimulation, No PD-L1, […] (CD28 [1]; CHO/OKT3 aAPC, no PD-L1, […]): 419
CD28 costimulation, Combination of FcR and/or PD-L1 Dependent Cross-Linking, 0.6 nM (CD28 [2]; K562/0KT3/PD-L1 aAPC, 0.6 nM): 689
CD28 costimulation, Combination of FcR and/or PD-L1 Dependent Cross-Linking, 50 nM (CD28 [2]; K562/0KT3/PD-L1 aAPC, 50 nM): 679
CD28 costimulation, FcR Dependent Cross-Linking (No PD-L1), 0.6 nM (CD28 [2]; K562/0KT3 aAPC, 0.6 nM): 1404
CD28 costimulation, FcR Dependent Cross-Linking (No PD-L1), 50 nM (CD28 [2]; K562/0KT3 aAPC, 50 nM): 1373
CD28 costimulation, FcR Dependent Cross-Linking (No PD-L1), […] (CD28 [2]; K562/0KT3 aAPC, […]): 1390
CTLA4 MFI at 66.6 nM (huCTLA4): 5962
CD28 MFI at 66.6 nM (CD28 [3]): 2592
Substance: Fc only: negative control Fc alone [reference compound]

Substance: WTCD80
MLR IFN-gamma levels (allogeneic CD4+ T cells): 19211 pg/mL
Coimmobilization with anti-CD3 IFN-gamma (human pan T cells): 509 pg/mL

Substance: durvalumab [reference compound]
IL-2 secretion in culture supernatants [4]: IL-2 production was not observed
mice with no detectable tumors (tumor-free) upon completion of the study (MC38 hPD-L1 tumor cells; 100 μg on days 7, 9 and 11, 11 mice per group): 2 mice
tumor-free mice at day 35 (MC38 hPD-L1 tumor cells; [6]): 3/13
tumor-free mice on Day 18 (MC38 hPD-L1 tumor cells; [6]): 3/13
tumor-free mice after re-challenge, day 59 (MC38 hPD-L1 tumor cells; [7]): 2/2
tumor-free mice after re-challenge, day 63 (MC38 hPD-L1 tumor cells; [7]): tumor-free

Substance: nivolumab [reference compound]
cytotoxicity (percentage of dead 7-AAD+ tumor cells) [5]: cytotoxic activity was not observed

From US20220177587A1, “METHODS AND USES OF VARIANT CD80 FUSION PROTEINS AND RELATED CONSTRUCTS” (Alpine Immune Sciences, Inc., priority 2018, published 2022)
